From patent US20210017278A1 (PROTHENA BIOSCIENCES, published 2021)

Legend:
Assay in all cases: ELISA, peptide coated on plate, HRP secondary, A490
[1] = molecular target: T1, peptide HEDT (SEQ ID NO: 19)
T1 construct: Coated on ELISA plates; also called X1EDX2 peptide
T1 peptide: HEDT
Source text: (§1) ELISA plates were coated with indicated peptides, blocked, and assayed with either NEOD001 or 2A4, as indicated. After washing, appropriate horseradish peroxidase-conjugated secondary antibodies were applied. The plate was then washed and developed with o-phenylenediamene, and absorbance was read at 490 nm.
(§2) ELISA plates were coated with peptides having the amino acid sequence HEDT (SEQ ID NO: 19), AEDS (SEQ ID NO: 20), or HGDT (SEQ ID NO: 21), blocked, and assayed with either NEOD001 (an antibody with a light chain having the amino sequence set forth as SEQ ID NO: 13 and a heavy chain having the amino acid sequence set forth as SEQ ID NO: 14) or 2A4 (ATCC Accession Number 9662), as indicated. After washing, appropriate horseradish peroxidase-conjugated secondary antibodies were applied. The plate was then washed and developed with o-phenylenediamene, and absorbance was read at 490 nm.

[2] = molecular target: T2, peptide AEDS (SEQ ID NO: 20)
T2 construct: Coated on ELISA plates; also called X1EDX2 peptide
T2 peptide: AEDS
Source text: as §1, §2

[3] = molecular target: T3, peptide HGDT (SEQ ID NO: 21)
T3 construct: Coated on ELISA plates; also called X1GDX2 peptide
T3 peptide: HGDT
Source text: as §1, §2

binding result [1]: binds
binding result [2]: binds
binding result [3]: binds
B1: NEOD001 (antibody, human IgG1, kappa, V domains shown)
VH: EVQLVESGGGLVQPGGSLRLSCAASGFTFNTYAMYWIRQAPGKGLEWVARIRSKSNNYAIYYADSVKDRFTISRDDSKNSLYLQMNSLKTEDTAVYYCARPYSDSFAYWGQGTLVTVSS
VL: DVVMTQSPLSLPVTPGEPASISCRSSQSLVHSTGNTYLHWYLQKPGQSPQLLIYKVSNRFSGVPDRFSGSGSGTDFTLKISRVEAEDVGVYYCSQSTHVPFTFGGGTKVEIKR
notes: It shares the CDRs of murine antibody 2A4; also called humanized version of antibody 2A4
